We go through nine molecules from patent US20220010021A1.

The chains are these.
B1: Ab0370 (antibody, IgG4, V domains shown)
VH: QVTLKESGPVLVKPTETLTLTCTVSGFSLNNARVGVSWIRQPPGKALEWLAWIFSNDEKSYSTSLKSRLTISKDTSKSQVVLTMTNMDPVDTATYYCARSVVTGGYYYEGMDVWGQGTTVTVSS
VL: SYVLTQPPSVSVAPGQTARITCGGNNIGSESVHWYQQKPGQAPVLVVDDSDRPSGIPERFSGSNSGNTATLTISRVEAGDEADYYCQVHDGNSDHVVFGGGTKLTVLG

Ends that are not written are not given here.

Chain of human glucagon receptor (human) (P47871 26-477): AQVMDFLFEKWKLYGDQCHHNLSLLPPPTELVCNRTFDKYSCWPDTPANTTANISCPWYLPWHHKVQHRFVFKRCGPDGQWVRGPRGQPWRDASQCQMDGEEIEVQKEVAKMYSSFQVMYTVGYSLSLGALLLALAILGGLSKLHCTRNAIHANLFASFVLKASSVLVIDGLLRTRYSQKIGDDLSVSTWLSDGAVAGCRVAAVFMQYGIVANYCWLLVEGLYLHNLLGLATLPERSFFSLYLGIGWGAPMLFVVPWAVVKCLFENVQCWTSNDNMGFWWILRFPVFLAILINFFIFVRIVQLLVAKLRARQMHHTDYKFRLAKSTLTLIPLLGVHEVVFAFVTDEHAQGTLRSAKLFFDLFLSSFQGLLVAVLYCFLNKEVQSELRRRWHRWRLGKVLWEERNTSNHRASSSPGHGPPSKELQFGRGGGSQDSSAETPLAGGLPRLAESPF

In the first assay the target is human GIP receptor (human) (UniProt P48546). The assay can be described thus: cell-based or functional assay.
Chain of human GIP receptor (human) (P48546 22-466): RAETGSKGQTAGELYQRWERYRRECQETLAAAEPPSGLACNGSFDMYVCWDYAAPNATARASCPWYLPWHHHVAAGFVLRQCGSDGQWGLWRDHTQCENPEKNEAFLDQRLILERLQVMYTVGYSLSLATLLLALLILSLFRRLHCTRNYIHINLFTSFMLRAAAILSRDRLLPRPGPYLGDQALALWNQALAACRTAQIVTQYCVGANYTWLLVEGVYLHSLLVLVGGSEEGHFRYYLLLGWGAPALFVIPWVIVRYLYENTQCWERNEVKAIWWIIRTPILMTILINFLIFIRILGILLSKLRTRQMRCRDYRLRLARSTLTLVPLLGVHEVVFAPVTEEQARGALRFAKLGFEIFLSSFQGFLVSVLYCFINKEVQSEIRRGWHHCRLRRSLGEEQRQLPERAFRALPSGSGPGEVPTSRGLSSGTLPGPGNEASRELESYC
Consider HGEGTFTSDLSKQLEEERVQLFIEWLKATGPSSGAPPPS-NH2 [P008], for which the HTRF cAMP EC50 is > 10 nM.

For the molecule GHGEGTFTSDKSKQLEEEAVRLFIEWLKAGGPSSGAPPPS-NH2 [P021], the HTRF cAMP EC50 was > 10 nM.

As to GHGEGTFTSDKSKQLEEEAVRLFIEWLKAGGPKKIRYS-NH2 [P014], the HTRF cAMP EC50 is > 10 nM.

GHGEGTFTSDLSKQLEEEAVRLFIEWLKAGGPKKIRYS-NH2 [P013]: the HTRF cAMP EC50 was > 10 nM.

As for GHGEGTFTSDLSKQLEEEAVRLFIEWLKAGGPSSGAPPPS-NH2 [P017], the HTRF cAMP EC50 was > 10 nM.

For another assay, the target named is human FGFR1c + KLB receptor complex on HEK293 iLite FGF21 reporter cells (human) (UniProt P11362). Nature of the assay: cell-based or functional assay.
Chain of human FGFR1c + KLB receptor complex on HEK293 iLite FGF21 reporter cells (human) (P11362 22-822, chain 1 of 2): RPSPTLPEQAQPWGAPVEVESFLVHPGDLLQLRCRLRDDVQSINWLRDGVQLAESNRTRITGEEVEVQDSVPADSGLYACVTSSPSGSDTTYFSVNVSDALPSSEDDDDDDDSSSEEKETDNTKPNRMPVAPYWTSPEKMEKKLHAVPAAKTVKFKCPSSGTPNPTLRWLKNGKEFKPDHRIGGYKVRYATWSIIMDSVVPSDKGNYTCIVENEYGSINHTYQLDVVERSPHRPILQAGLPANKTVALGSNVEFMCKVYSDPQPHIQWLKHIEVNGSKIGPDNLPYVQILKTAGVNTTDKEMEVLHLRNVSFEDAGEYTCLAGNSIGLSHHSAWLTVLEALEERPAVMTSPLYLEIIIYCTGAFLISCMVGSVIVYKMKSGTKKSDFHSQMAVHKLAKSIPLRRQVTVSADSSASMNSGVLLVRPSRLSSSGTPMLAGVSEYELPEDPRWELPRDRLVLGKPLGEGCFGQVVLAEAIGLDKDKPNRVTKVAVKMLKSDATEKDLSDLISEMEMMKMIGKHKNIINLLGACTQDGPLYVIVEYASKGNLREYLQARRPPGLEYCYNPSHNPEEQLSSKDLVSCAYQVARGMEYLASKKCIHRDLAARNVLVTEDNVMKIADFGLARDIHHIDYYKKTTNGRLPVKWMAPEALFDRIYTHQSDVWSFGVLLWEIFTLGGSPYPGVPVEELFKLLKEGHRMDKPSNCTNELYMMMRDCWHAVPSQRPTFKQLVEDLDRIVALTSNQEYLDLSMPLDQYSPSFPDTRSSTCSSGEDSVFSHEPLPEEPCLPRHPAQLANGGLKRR
Chain of human FGFR1c + KLB receptor complex on HEK293 iLite FGF21 reporter cells (human) (Q86Z14 whole entry, chain 2 of 2, further chain): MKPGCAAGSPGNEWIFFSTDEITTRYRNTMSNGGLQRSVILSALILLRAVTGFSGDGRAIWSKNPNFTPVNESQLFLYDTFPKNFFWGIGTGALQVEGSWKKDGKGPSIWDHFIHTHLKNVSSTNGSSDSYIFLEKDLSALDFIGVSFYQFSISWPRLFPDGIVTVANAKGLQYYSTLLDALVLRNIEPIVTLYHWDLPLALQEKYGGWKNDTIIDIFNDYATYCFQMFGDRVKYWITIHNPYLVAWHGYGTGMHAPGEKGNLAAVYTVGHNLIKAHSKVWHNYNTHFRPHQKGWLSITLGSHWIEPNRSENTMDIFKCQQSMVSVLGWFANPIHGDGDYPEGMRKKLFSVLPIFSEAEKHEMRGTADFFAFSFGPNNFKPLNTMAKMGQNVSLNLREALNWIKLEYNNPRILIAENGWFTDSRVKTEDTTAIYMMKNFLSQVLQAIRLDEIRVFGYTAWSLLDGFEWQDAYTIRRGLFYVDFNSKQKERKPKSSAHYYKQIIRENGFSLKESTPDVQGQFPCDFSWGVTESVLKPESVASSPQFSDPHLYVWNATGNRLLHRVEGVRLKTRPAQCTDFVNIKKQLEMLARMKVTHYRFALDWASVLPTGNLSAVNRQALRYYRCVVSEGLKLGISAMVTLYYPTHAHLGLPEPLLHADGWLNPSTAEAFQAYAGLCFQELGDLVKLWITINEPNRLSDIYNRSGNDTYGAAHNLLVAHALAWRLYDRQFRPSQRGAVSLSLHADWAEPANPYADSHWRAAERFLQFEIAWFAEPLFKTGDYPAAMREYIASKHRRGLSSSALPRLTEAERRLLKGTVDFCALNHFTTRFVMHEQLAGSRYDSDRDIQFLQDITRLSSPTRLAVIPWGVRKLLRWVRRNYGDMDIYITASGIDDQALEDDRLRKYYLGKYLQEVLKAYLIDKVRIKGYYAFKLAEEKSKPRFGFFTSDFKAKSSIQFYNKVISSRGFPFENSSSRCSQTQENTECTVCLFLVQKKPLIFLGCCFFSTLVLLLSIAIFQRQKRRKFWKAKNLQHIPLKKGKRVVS
Take B1: the EC50 (in general, the concentration at which the effect is half-maximal) is > 100 nmol/L and the Emax (as a rule, the size of the effect at its maximum, as opposed to the concentration needed) was 490%.

The next assay has as its target human glucagon receptor (human) (UniProt P47871). The assay can be described thus: cell-based or functional assay.
As to HGEGTFTSDLSKQLEEERVQLFIEWLKATGPSSGAPPPS-NH2 [P008], the HTRF cAMP EC50 is > 10 nM.

For GHGEGTFTSDKSKQLEEEAVRLFIEWLKAGGPSSGAPPPS-NH2 [P021], the HTRF cAMP EC50 is > 10 nM.

For GHGEGTFTSDKSKQLEEEAVRLFIEWLKAGGPKKIRYS-NH2 [P014], the HTRF cAMP EC50 came to 5.4 nM.

With GHGEGTFTSDLSKQLEEEAVRLFIEWLKAGGPKKIRYS-NH2 [P013], the HTRF cAMP EC50 is > 10 nM.

Consider GHGEGTFTSDLSKQLEEEAVRLFIEWLKAGGPSSGAPPPS-NH2 [P017], for which the HTRF cAMP EC50 was > 10 nM.

Another assay deals with human GLP-1 receptor (human) (UniProt P43220). The assay can be described thus: cell-based or functional assay.
Chain of human GLP-1 receptor (human) (P43220 24-463): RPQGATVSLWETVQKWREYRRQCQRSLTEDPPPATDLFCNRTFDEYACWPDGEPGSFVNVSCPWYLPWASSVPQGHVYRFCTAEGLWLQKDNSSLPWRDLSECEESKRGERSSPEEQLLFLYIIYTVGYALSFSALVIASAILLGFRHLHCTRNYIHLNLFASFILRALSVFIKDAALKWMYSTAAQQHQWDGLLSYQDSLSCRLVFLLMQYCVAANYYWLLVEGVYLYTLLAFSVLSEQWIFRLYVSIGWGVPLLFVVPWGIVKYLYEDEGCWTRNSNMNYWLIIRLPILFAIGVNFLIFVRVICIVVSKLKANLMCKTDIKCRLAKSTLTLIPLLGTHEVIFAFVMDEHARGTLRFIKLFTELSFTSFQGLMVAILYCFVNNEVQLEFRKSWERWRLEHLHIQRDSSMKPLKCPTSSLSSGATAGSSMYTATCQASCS
HGEGTFTSDLSKQLEEERVQLFIEWLKATGPSSGAPPPS-NH2 [P008] came in with an HTRF cAMP EC50 of 23.2 pmol/L.

With GHGEGTFTSDKSKQLEEEAVRLFIEWLKAGGPSSGAPPPS-NH2 [P021], the HTRF cAMP EC50 is 27.6 pmol/L.

Take GHGEGTFTSDKSKQLEEEAVRLFIEWLKAGGPKKIRYS-NH2 [P014]: the HTRF cAMP EC50 worked out at 10.5 pmol/L.

Molecule GHGEGTFTSDLSKQLEEEAVRLFIEWLKAGGPKKIRYS-NH2 [P013] had an HTRF cAMP EC50 of 9.9 pmol/L.

Regarding GHGEGTFTSDLSKQLEEEAVRLFIEWLKAGGPSSGAPPPS-NH2 [P017], the HTRF cAMP EC50 turned out to be 8.5 pmol/L.

With HGEGTFTSDLSKQLEEEAVQLFIEWLLATGPSSGAPPPS-NH2 [P010], the HTRF cAMP EC50 was determined as 3.5 pmol/L.

Turning to GHGEGTFTSDLSIQLEEEAVRLFIEWLLAGGPSSGAPPPS-NH2 [P019], the HTRF cAMP EC50 was found to be 27.6 pmol/L.

The molecule GHGEGTFTSDLSIQLEEEAVRLFIEWLLATGPSSGAPPPS-NH2 [P020] returned an HTRF cAMP EC50 of 206 pmol/L.
